± gives the uncertainty stated by the source.
B1: V(D)J recombination-activating protein 2, residues 415 to 491; numbered along this chain, P55895 (parent)
chain: YWITCCPTCDVDINTWVPFYSTELNKPAMIYCSHGDGHWVHAQCMDLAERTLIHLSAGSNKYYCNEHVEIARALHTP

Variants of: B1
Test: abundance fitness (aPCA) (normalised: wild type 0, dead -1); higher = more abundant; growth selection in yeast, the domain comes from the species named
Details: Homo sapiens

Going from Y62T to Y62N, the abundance fitness falls from -0.152 ± 0.13 to -0.469 ± 0.17.

Y62K and Y62Q are within error of each other in abundance fitness: -0.6 ± 0.21 for the first, -0.312 ± 0.12 for the second.

T76Q and T76P are within error of each other in abundance fitness: -0.009 ± 0.097 for the first, 0.054 ± 0.11 for the second.

T76A and T76I are within error of each other in abundance fitness: 0.005 ± 0.076 for the first, -0.155 ± 0.14 for the second.

Compared with T76S, T76C is lower in abundance fitness: -0.046 ± 0.077 for the first, -0.416 ± 0.18 for the second.

Compared with W39Y, W39T is lower in abundance fitness: 0.014 ± 0.079 for the first, -0.197 ± 0.049 for the second.

Y1D and Y1N are within error of each other in abundance fitness: -0.108 ± 0.21 for the first, -0.252 ± 0.17 for the second.

Y1M and Y1A are within error of each other in abundance fitness: -0.041 ± 0.089 for the first, -0.188 ± 0.079 for the second.

A71D and A71P are within error of each other in abundance fitness: -0.038 ± 0.088 for the first, -0.03 ± 0.079 for the second.

A71N and N60F are within error of each other in abundance fitness: -0.121 ± 0.1 for the first, -0.273 ± 0.16 for the second.

N60T and N60P are within error of each other in abundance fitness: -0.022 ± 0.063 for the first, -0.118 ± 0.08 for the second.

First: N60C
Second: N60A
The abundance fitness of the first is lower: -0.209 ± 0.12 for the first, 0.002 ± 0.069 for the second.

Compared with N60W, N60E is higher in abundance fitness: -0.207 ± 0.096 for the first, 0.046 ± 0.083 for the second.

P77S and P77Q are within error of each other in abundance fitness: -0.354 ± 0.29 for the first, -0.011 ± 0.26 for the second.

R50V and R50K are within error of each other in abundance fitness: 0.069 ± 0.051 for the first, 0.015 ± 0.093 for the second.

R50Q and R50M are within error of each other in abundance fitness: -0.032 ± 0.1 for the first, 0.015 ± 0.089 for the second.

Going from I3D to I3L, the abundance fitness falls from 0.004 ± 0.071 to -0.112 ± 0.042.

I3T and I3F are within error of each other in abundance fitness: -0.102 ± 0.08 for the first, 0.044 ± 0.082 for the second.

Compared with I3C, I3H is lower in abundance fitness: -0.117 ± 0.057 for the first, -0.265 ± 0.078 for the second.

First: I3P
Second: I3G
The abundance fitness of the first is lower: -0.623 ± 0.078 for the first, -0.021 ± 0.033 for the second.

I3S and I3E are within error of each other in abundance fitness: -0.118 ± 0.044 for the first, -0.082 ± 0.074 for the second.

Compared with L47R, L47H is higher in abundance fitness: -0.419 ± 0.042 for the first, -0.243 ± 0.094 for the second.

Going from L47V to L47W, the abundance fitness falls from 0.034 ± 0.039 to -0.611 ± 0.067.

L47Y and L47N are within error of each other in abundance fitness: -0.508 ± 0.15 for the first, -0.364 ± 0.11 for the second.

F19C and F19A are within error of each other in abundance fitness: -0.186 ± 0.2 for the first, -0.305 ± 0.13 for the second.

F19S and F19K are within error of each other in abundance fitness: -0.154 ± 0.29 for the first, -0.116 ± 0.27 for the second.

F19N and S21A are within error of each other in abundance fitness: 0.191 ± 0.46 for the first, -0.187 ± 0.13 for the second.

S21M and S21F are within error of each other in abundance fitness: -0.321 ± 0.44 for the first, -0.154 ± 0.14 for the second.

First: S21T
Second: S21C
The abundance fitness of the first is lower: -0.321 ± 0.12 for the first, 0.015 ± 0.16 for the second.

S21R and G58A are within error of each other in abundance fitness: -0.111 ± 0.12 for the first, -0.049 ± 0.074 for the second.

G58K and G58R are within error of each other in abundance fitness: -0.063 ± 0.13 for the first, -0.165 ± 0.076 for the second.

G58M and G58E are within error of each other in abundance fitness: -0.11 ± 0.2 for the first, 0.041 ± 0.089 for the second.

Compared with G58L, G58V is lower in abundance fitness: 0.025 ± 0.078 for the first, -0.161 ± 0.084 for the second.

G37K and P27H are within error of each other in abundance fitness: -0.785 ± 0.37 for the first, -0.741 ± 0.5 for the second.

P27S and P27V are within error of each other in abundance fitness: -0.958 ± 0.34 for the first, -0.668 ± 0.21 for the second.

P27G and C5A are within error of each other in abundance fitness: -1.09 ± 0.27 for the first, -0.616 ± 0.41 for the second.

D36A and D36Q are within error of each other in abundance fitness: -0.177 ± 0.1 for the first, 0.055 ± 0.19 for the second.

H41Y and H41D are within error of each other in abundance fitness: -0.771 ± 0.34 for the first, -0.785 ± 0.48 for the second.

W2I and W2L are within error of each other in abundance fitness: -0.333 ± 0.26 for the first, -0.467 ± 0.066 for the second.

W2G and W2A are within error of each other in abundance fitness: -0.342 ± 0.051 for the first, -0.39 ± 0.07 for the second.

Going from W2M to W16C, the abundance fitness falls from -0.226 ± 0.052 to -0.553 ± 0.23.

W16T and W16R are within error of each other in abundance fitness: -0.144 ± 0.38 for the first, -0.35 ± 0.16 for the second.

W16F and C64Y are within error of each other in abundance fitness: -0.725 ± 0.42 for the first, -0.712 ± 0.28 for the second.

C64H and C64K are within error of each other in abundance fitness: -0.962 ± 0.41 for the first, -0.842 ± 0.3 for the second.

M29E and M29C are within error of each other in abundance fitness: -0.421 ± 0.24 for the first, -0.532 ± 0.3 for the second.

Compared with M29R, H34P is lower in abundance fitness: 0.055 ± 0.23 for the first, -0.808 ± 0.15 for the second.

H34Y and H34G are within error of each other in abundance fitness: -0.101 ± 0.12 for the first, -0.007 ± 0.056 for the second.

H34D and H34A are within error of each other in abundance fitness: -0.095 ± 0.13 for the first, -0.035 ± 0.069 for the second.

Going from T8A to T8S, the abundance fitness rises from -0.437 ± 0.17 to 0.129 ± 0.24.

T8Q and T8E are within error of each other in abundance fitness: -0.258 ± 0.2 for the first, 0.058 ± 0.17 for the second.

Going from T8K to N14D, the abundance fitness rises from -0.123 ± 0.17 to 0.385 ± 0.33.

N14M and N14S are within error of each other in abundance fitness: -0.01 ± 0.32 for the first, -0.419 ± 0.33 for the second.

V11T and V11C are within error of each other in abundance fitness: -0.336 ± 0.13 for the first, 0.012 ± 0.38 for the second.

V11R and V11F are within error of each other in abundance fitness: -0.75 ± 0.37 for the first, -0.386 ± 0.22 for the second.

Compared with V11G, L52E is higher in abundance fitness: -0.697 ± 0.14 for the first, -0.258 ± 0.095 for the second.

L52D and M45L are within error of each other in abundance fitness: -0.31 ± 0.18 for the first, -0.291 ± 0.066 for the second.

First: M45N
Second: M45I
The abundance fitness of the first is higher: -0.016 ± 0.18 for the first, -0.615 ± 0.098 for the second.

Compared with M45Y, C44I is lower in abundance fitness: -0.296 ± 0.21 for the first, -0.972 ± 0.18 for the second.

C44P and C44A are within error of each other in abundance fitness: -0.943 ± 0.12 for the first, -1.02 ± 0.13 for the second.

C44T and T15A are within error of each other in abundance fitness: -0.556 ± 0.091 for the first, -0.341 ± 0.21 for the second.

T15G and D10R are within error of each other in abundance fitness: 0.055 ± 0.25 for the first, 0.195 ± 0.17 for the second.

D10K and D10V are within error of each other in abundance fitness: -0.089 ± 0.18 for the first, 0.145 ± 0.19 for the second.

D10T and D10G are within error of each other in abundance fitness: 0.019 ± 0.21 for the first, -0.03 ± 0.13 for the second.

D10W and H54N are within error of each other in abundance fitness: 0.045 ± 0.12 for the first, -0.061 ± 0.1 for the second.

H54F and H54Y are within error of each other in abundance fitness: -0.602 ± 0.34 for the first, -0.183 ± 0.24 for the second.

H54C and H54R are within error of each other in abundance fitness: 0.001 ± 0.15 for the first, -0.056 ± 0.074 for the second.

Going from H54K to E23G, the abundance fitness falls from 0.112 ± 0.13 to -0.372 ± 0.17.

E23H and E23S are within error of each other in abundance fitness: -0.635 ± 0.31 for the first, -0.805 ± 0.23 for the second.

A57K and A57S are within error of each other in abundance fitness: -0.111 ± 0.12 for the first, 0.048 ± 0.055 for the second.

A57Y and A57M are within error of each other in abundance fitness: -0.108 ± 0.19 for the first, -0.156 ± 0.12 for the second.

N25H and N25E are within error of each other in abundance fitness: 0.113 ± 0.31 for the first, 0.167 ± 0.17 for the second.

Compared with N25V, N25C is lower in abundance fitness: 0.065 ± 0.21 for the first, -0.309 ± 0.15 for the second.

N25A and N25W are within error of each other in abundance fitness: -0.124 ± 0.19 for the first, -0.024 ± 0.2 for the second.

Y20D and Y20E are within error of each other in abundance fitness: -0.525 ± 0.26 for the first, -0.576 ± 0.3 for the second.

Compared with A42T, A42S is higher in abundance fitness: -0.744 ± 0.12 for the first, -0.177 ± 0.077 for the second.

Going from A42G to A42D, the abundance fitness falls from -0.115 ± 0.05 to -0.762 ± 0.17.

Compared with A42W, A48M is higher in abundance fitness: -0.643 ± 0.067 for the first, -0.022 ± 0.075 for the second.

A48C and A48H are within error of each other in abundance fitness: -0.061 ± 0.14 for the first, -0.226 ± 0.16 for the second.

A48L and A48V are within error of each other in abundance fitness: 0.001 ± 0.062 for the first, -0.009 ± 0.054 for the second.

Compared with A48R, A48N is lower in abundance fitness: 0.023 ± 0.058 for the first, -0.339 ± 0.27 for the second.

Going from A48F to A48Q, the abundance fitness rises from -0.161 ± 0.084 to 0.105 ± 0.067.

A48Y and A48E are within error of each other in abundance fitness: -0.092 ± 0.13 for the first, 0.013 ± 0.066 for the second.

First: A48K
Second: C9F
The abundance fitness of the first is higher: -0.011 ± 0.076 for the first, -0.637 ± 0.26 for the second.

In the case of C9T, the abundance fitness is reported as -0.809 ± 0.38.

— the Human Domainome abundance scans (Beltran et al. 2025)
